# Measured values taken from patent US20080207449A1 (CROPDESIGN N V, published 2008).
# B1: GAL4 transactivation domain fusion of AtDPa 121-292 (prey in pAD-GAL424) (other, not shown: large carriers)
# chain: IIARDKKEIRWKGLPITCKKDVEEVKMDRNKVMSSVQKKAAFLKELREKVSSLESLMSRNQEMVVKTQGPAEGFTLPFILLETNPHAVVEIEISEDMQLVHLDFNSTPFSVHDDAYILKLMQEQKQEQNRVSSSSSTHHQSQHSSAHSSSSSCIASGTSGPVCWNSGSIDTR
# B2: GAL4 transactivation domain fusion of AtDPa 42-142 (prey in pAD-GAL424) (other, not shown: large carriers)
# chain: EKKGQSRTSGGGLRQFSVMVCQKLEAKKITTYKEVADEIISDFATIKQNAEKPLNENEYNEKNIRRRVYDALNVFMALDIIARDKKEIRWKGLPITCKKDV
# B3: c-myc-tagged AtDPb 1-193, in vitro translated (other)
# chain: EQKLISEEDLEQKLISEEDLMTTTGSNSNHNHHESNNNNNNPSTRSWGTAVSGQSVSTSGSMGSPSSRSEQTITVVTSTSDTTFQRLNNLDIQGDDAGSQGASGVKKKKRGQRAAGPDKTGRGLRQFSMKVCEKVESKGRTTYNEVADELVAEFALPNNDGTSPDQQQYDEKNIRRRVYDALNVLMAMDIISKDKKEIQWRGLPRTSLSDIEE
# notes: also called c-myc-AtDPb 1-193
# B4: GAL4 transactivation domain fusion of AtDPa 121-213 (prey in pAD-GAL424) (other, not shown: large carriers)
# chain: IIARDKKEIRWKGLPITCKKDVEEVKMDRNKVMSSVQKKAAFLKELREKVSSLESLMSRNQEMVVKTQGPAEGFTLPFILLETNPHAVVEIEI
# B5: GAL4 transactivation domain fusion of AtDPa 1-292 (prey in pAD-GAL424) (other, not shown: large carriers)
# chain: MSMEMELFVTPEKQRQHPSVSVEKTPVRRKLIVDDDSEIGSEKKGQSRTSGGGLRQFSVMVCQKLEAKKITTYKEVADEIISDFATIKQNAEKPLNENEYNEKNIRRRVYDALNVFMALDIIARDKKEIRWKGLPITCKKDVEEVKMDRNKVMSSVQKKAAFLKELREKVSSLESLMSRNQEMVVKTQGPAEGFTLPFILLETNPHAVVEIEISEDMQLVHLDFNSTPFSVHDDAYILKLMQEQKQEQNRVSSSSSTHHQSQHSSAHSSSSSCIASGTSGPVCWNSGSIDTR
# notes: also called full-length AtDPa prey
# B6: c-myc-tagged AtDPa 1-142, in vitro translated (other)
# chain: EQKLISEEDLEQKLISEEDLMSMEMELFVTPEKQRQHPSVSVEKTPVRRKLIVDDDSEIGSEKKGQSRTSGGGLRQFSVMVCQKLEAKKITTYKEVADEIISDFATIKQNAEKPLNENEYNEKNIRRRVYDALNVFMALDIIARDKKEIRWKGLPITCKKDV
# notes: also called c-myc-AtDPa 1-142
# B7: GAL4 transactivation domain fusion of AtDPa 1-142 (prey in pAD-GAL424) (other, not shown: large carriers)
# chain: MSMEMELFVTPEKQRQHPSVSVEKTPVRRKLIVDDDSEIGSEKKGQSRTSGGGLRQFSVMVCQKLEAKKITTYKEVADEIISDFATIKQNAEKPLNENEYNEKNIRRRVYDALNVFMALDIIARDKKEIRWKGLPITCKKDV
# B8: GAL4 transactivation domain fusion of AtDPa 42-292 (prey in pAD-GAL424) (other, not shown: large carriers)
# chain: EKKGQSRTSGGGLRQFSVMVCQKLEAKKITTYKEVADEIISDFATIKQNAEKPLNENEYNEKNIRRRVYDALNVFMALDIIARDKKEIRWKGLPITCKKDVEEVKMDRNKVMSSVQKKAAFLKELREKVSSLESLMSRNQEMVVKTQGPAEGFTLPFILLETNPHAVVEIEISEDMQLVHLDFNSTPFSVHDDAYILKLMQEQKQEQNRVSSSSSTHHQSQHSSAHSSSSSCIASGTSGPVCWNSGSIDTR
# B9: GAL4 transactivation domain fusion of AtDPb 182-263 (prey in pAD-GAL424) (other, not shown: large carriers)
# chain: GLPRTSLSDIEELKNERLSLRNRIEKKTAYSQELEEQYVGLQNLIQRNEHLYSSGNAPSGGVALPFILVQTRPHATVEVEI
# B10: GAL4 transactivation domain fusion of AtDPb 182-385 (prey in pAD-GAL424) (other, not shown: large carriers)
# chain: GLPRTSLSDIEELKNERLSLRNRIEKKTAYSQELEEQYVGLQNLIQRNEHLYSSGNAPSGGVALPFILVQTRPHATVEVEISEDMQLVHFDFNSTPFELHDDNFVLKTMKFCDQPPQQPNGRNNSQLVCHNFTPENPNKGPSTGPTPQLDMYETHLQSQQHQQHSQLQIIPMPETNNVTSSADTAPVKSPSLPGIMNSSMKPEN
# B11: GAL4 transactivation domain fusion of AtDPb 1-193 (prey in pAD-GAL424) (other, not shown: large carriers)
# chain: MTTTGSNSNHNHHESNNNNNNPSTRSWGTAVSGQSVSTSGSMGSPSSRSEQTITVVTSTSDTTFQRLNNLDIQGDDAGSQGASGVKKKKRGQRAAGPDKTGRGLRQFSMKVCEKVESKGRTTYNEVADELVAEFALPNNDGTSPDQQQYDEKNIRRRVYDALNVLMAMDIISKDKKEIQWRGLPRTSLSDIEE
# B12: GAL4 transactivation domain fusion of AtDPa 172-292 (prey in pAD-GAL424) (other, not shown: large carriers)
# chain: SLESLMSRNQEMVVKTQGPAEGFTLPFILLETNPHAVVEIEISEDMQLVHLDFNSTPFSVHDDAYILKLMQEQKQEQNRVSSSSSTHHQSQHSSAHSSSSSCIASGTSGPVCWNSGSIDTR
# Tests used:
# [1] = molecular target: T1, pGBTE2Fa226-356: GAL4 DNA-binding domain fusion of AtE2Fa amino acids 226-356 (Arabidopsis); test: yeast two-hybrid, growth on His- minimal medium; legend: +, positive interaction
# T1 construct: also called E2F5 dimerisation domain; E2Fa (=E2F5) dimerization domain
# Protocol: (§1) Different combinations between bait (pGBTE2Fa226-356, pGBTE2Fb-Rb, or pGBTE2Fb 1-127, SEQ ID NO:207) and prey constructs were transformed into yeast cells and assayed for their ability to grow on His⁻ minimal media after 3 days of incubation at 30° C. Bait plasmids co-transformed with empty pAD-GAL424 and prey plasmids co-transformed with empty pGBT9 were assessed along as controls for the specificity of the interaction.
# (§2) Different combinations between AtE2Fs bait and AtDPs prey constructs were tested for growth on His minimal media. −, no interaction; +, positive interaction; NT, not tested.
# [2] = molecular target: T2, pGBTE2Fb-Rb: GAL4 DNA-binding domain fusion of AtE2Fb amino acids 1-385 (lacking the Rb-binding domain) (Arabidopsis); test: as above
# T2 construct: also called E2F3 N-terminal; E2Fb (=E2F3) N-terminal domain
# Protocol: as §1, §2
# [3] = molecular target: T3, empty pGBT9 (GAL4 DNA-binding domain alone) (UniProt P04386 1-147); test: yeast two-hybrid, growth on His- minimal medium; empty bait vector control; legend: -, no interaction
# T3 construct: empty bait vector, control for specificity; also called pBGT9
# Protocol: as §1, §2
# [4] = molecular target: T1, pGBTE2Fa226-356: GAL4 DNA-binding …; test: yeast two-hybrid, growth on His- minimal medium; legend: -, no interaction
# [5] = molecular target: T2, pGBTE2Fb-Rb: GAL4 DNA-binding domain …; test: as above
# [6] = molecular target: T4, HA-tagged wild-type AtE2Fb, in vitro translated (Arabidopsis, UniProt Q9FV71 1-469); test: co-immunoprecipitation (anti-c-myc) of in vitro co-translated tagged proteins, SDS-PAGE autoradiography
# T4 construct: wild-type (whole) protein; also called HA-AtE2Fb; E2F3
# T4 sequence (Q9FV71 1-469, tags or fused parts left off): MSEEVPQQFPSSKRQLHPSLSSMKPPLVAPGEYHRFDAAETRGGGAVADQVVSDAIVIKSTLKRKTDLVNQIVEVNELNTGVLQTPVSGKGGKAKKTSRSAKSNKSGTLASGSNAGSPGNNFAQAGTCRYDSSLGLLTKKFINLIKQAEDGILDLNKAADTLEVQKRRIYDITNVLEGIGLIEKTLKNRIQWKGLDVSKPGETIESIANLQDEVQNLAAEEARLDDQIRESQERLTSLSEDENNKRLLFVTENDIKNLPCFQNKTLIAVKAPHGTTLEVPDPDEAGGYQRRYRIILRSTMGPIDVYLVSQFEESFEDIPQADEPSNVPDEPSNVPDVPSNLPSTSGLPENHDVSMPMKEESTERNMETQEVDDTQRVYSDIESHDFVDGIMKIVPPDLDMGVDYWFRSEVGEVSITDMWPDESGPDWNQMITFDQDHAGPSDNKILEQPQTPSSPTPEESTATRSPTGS
# Protocol: In vitro transcription and translation experiments were performed using the TNT T7-coupled wheat germ extract kit (Promega) primed with appropriate plasmids for 90 min at 30° C. For immunoprecipitation, 10 μl of the total in vitro translated extract (50 μl) was diluted at 1:5 in Nonidet P40 buffer (50 mM Tris, pH 7.4, 150 mM NaCl, 1% Nonidet P40, 1 mM phenylmethylsulfonyl fluoride, 10 μg/ml leupeptin/aprotinin/pepstatin) and incubated for 2 h at 4° C. with anti-c-myc (9E10; BabCo) or anti-HA (16B12; BabCo) antibodies. Protein-A-Sepharose (40 μl 25% (v/v)) was added and incubated for 1 h at 4° C., then the beads were washed four times with Nonidet P40 buffer. Immune complexes were eluted with 10 μl […] sodium dodecyl sulfate (SDS) sample buffer and analyzed by 10% or 15% SDS-PAGE and by autoradiography.
# Similar results were obtained by two-hybrid analysis (see Table 5 of Example 12). To test whether the structural requirements for heterodimerization of the AtDPs were similar to those of their animal homologs, several deletion mutants of AtDPa and AtDPb were constructed (for a schematic illustration, see FIGS. 52 and 53), tagged with the c-myc epitope (FIGS. 54 and 55, panels A). The interactions between the mutant AtDPs and AtE2Fb were analyzed in immunoprecipitation experiments with the specific anti-HA or anti-c-myc antibodies ([…], panels B and C, respectively). […]
# [7] = molecular target: T5, pGBT DPa 1-292: GAL4 DNA-binding domain fusion of AtDPa 1-292 (Arabidopsis thaliana); test: yeast two-hybrid, growth on His- minimal medium; legend: -, no interaction
# T5 construct: its construction is not described
Binder,binding result [1],binding result [2],binding result [3],binding result [4],binding result [5],also measured
B1,binds,binds,,,,
B2,,,no binding,no binding,no binding,
B3,,,,,,binding result [6]: no binding
B4,,,no binding,no binding,no binding,
B5,,binds,,,,binding result [7]: no binding
B6,,,,,,binding result [6]: no binding
B7,,,no binding,no binding,no binding,
B8,binds,binds,,,,
B9,binds,binds,no binding,,,
B10,binds,binds,,,,
B11,,,,no binding,no binding,
B12,,,no binding,no binding,no binding,
